Laboratory results as given in patent US10253323B2, “Chloroplast transit peptides” (priority 2015, dated 2019).
“Also recorded” adds a separate entry of the source.

B1: TraP27: synthetic chloroplast transit peptide, SEQ ID NO:7; tested fused to GFP (pDAB109848) (protein)
chain: MATFTRVCHTARKSFVSLSNSQANSPVSVRFLSLPMPAARPAVKSGVRLWGCRLSFKVSAS
modifications: TraP27
B2: TraP19: chimeric chloroplast transit peptide, SEQ ID NO:5; N-terminus Amaranthus, C-terminus Dunaliella salina; tested fused to GFP (pDAB107636) (protein)
chain: MAQATTINNGVHTGQLHHTLPKTQLPKSSKVNDVVPHVYSAPLSVARRSCSKSSIRSTRRLQTTVCS
modifications: TraP19
B3: TraP18: chimeric chloroplast transit peptide, SEQ ID NO:4; N-terminus Oryza sativa, C-terminus Amaranthus; tested fused to GFP (pDAB107635) (protein)
chain: MAATMASNAAAAAAVSLDQAVAASAAFSSKTLNFGSNLRISPKFMSLTNKRVGGQSSIVPKIQASVA
modifications: TraP18

What was measured:
[1] = test system: chloroplasts of the tobacco leaf tissues; experiment: Tobacco transient assay, confocal microscopy of TraP-YFP/GFP; type: cell-based, Nicotiana tabacum; conditions: TraP-YFP or TraP-GFP fusion, Agrobacterium-infiltrated tobacco leaf tissue
Description: The above described chimeric chloroplast transit peptide sequences were initially tested via a transient in planta assay. Polynucleotide sequences which encode the TraP10 (SEQ ID NO:9), TraP11 (SEQ ID NO:10), TraP17 (SEQ ID NO:11), TraP18 (SEQ ID NO:12), TraP19 (SEQ ID NO:13), TraP26 (SEQ ID NO:14), TraP27 (SEQ ID NO:15), and TraP28 (SEQ ID NO:16), chimeric chloroplast transit peptide sequences were synthesized. A linker sequence (SEQ ID NO:17) was incorporated between the TraP sequence and the yfp coding sequence of TraP10 and TraP11. The resulting constructs contained two plant transcription units (PTU). The first PTU was comprised of the Arabidopsis thaliana Ubiquitin 10 promoter (AtUbi10 promoter; Callis, et al., (1990) J. Biol. Chem., 265: 12486-12493), TraP-yellow fluorescent protein fusion gene (TraP-YFP; US Patent App. 2007/0298412) or the TraP-green fluorescent protein fusion gene (TraP-GFP; Sheen et al., (1995) Plant J., 8(5): 777-84), and Agrobacterium tumefaciens ORF 23 3′ untranslated region (AtuORF23 3′UTR; U.S. Pat. No. 5,428,147). The second PTU was comprised of the Cassava Vein Mosaic Virus promoter (CsVMV promoter; Verdaguer et al., (1996) Plant Molecular Biology, 31: 1129-1139), phosphinothricin acetyl transferase (PAT; Wohlleben et al., (1988) Gene, 70: 25-37) or DSM-II (International Patent App. 2008070845), and Agrobacterium tumefaciens ORF 1 3′ untranslated region (AtuORF1 3′UTR; Huang et al., (1990) J. Bacteriol., 172: 1814-1822). Construct pDAB101979 contains the TraP10 chimeric chloroplast transit peptide (FIG. 3). Construct pDAB101980 contains the TraP11 chimeric chloroplast transit peptide (FIG. 4). Construct pDAB107634 contains the TraP17 chimeric chloroplast transit peptide (FIG. 5). Construct pDAB107635 contains the TraP18 chimeric chloroplast transit peptide (FIG. 6). Construct pDAB107636 contains the TraP19 chimeric chloroplast transit peptide (FIG. 7). Construct pDAB109847 contains the TraP26 chimeric chloroplast transit peptide (FIG. 8). Construct pDAB109848 contains the TraP27 chimeric chloroplast transit peptide (FIG. 9). Construct pDAB109849 contains the TraP28 chimeric chloroplast transit peptide (FIG. 10). […] The constructs were confirmed via restriction enzyme digestion and sequencing. Finally, the constructs were transformed into Agrobacterium tumefaciens and stored as glycerol stocks.
From an Agrobacterium glycerol stock, a loop full of frozen culture was inoculated into 2 ml of Yeast-extract Peptone Dextrose (100 μg/ml spectinomycin) in a 14 ml sterile tube. The inoculated media was incubated at 28° C. overnight with shaking at 200 rpm. The following day about 100 μl of the culture was used to inoculate 25 ml of YPD (100 μg/ml spectinomycin) in a 125 ml sterile tri-baffled flask, and incubated overnight at 28° C. overnight with shaking at 200 rpm. The following day the cultures were diluted to an OD600 of 0.5 in sterile ddH2O (pH 8.0). The diluted Agrobacterium strain was mixed with a second Agrobacterium strain containing the P19 helper protein at a ratio of 1:1. The culture were used for tobacco leaf infiltration via the Voinnet method. Voinnet O, Rivas S, Mestre P, and Baulcombe D, (2003) An enhanced transient expression system in plants based on suppression of gene silencing by the p19 protein of tomato bushy stunt virus. The Plant Journal, 33: 949-956. Infiltrated tobacco plants were placed in a Conviron™ set at 16 hr of light at 24° C. for at least three days until being assayed.
Agrobacterium-infiltrated tobacco leaves were severed from the plant, and placed into a petri-dish with water to prevent dehydration. The infiltrated tobacco leaves were observed under blue light excitation with long-pass filter glasses held in place using a Dark Reader Hand Lamp™ (Clare Chemical Research Co.; Dolores, Colo.) to identify undamaged areas of the leaf that were successfully expressing the YFP or GFP reporter proteins. […]

[2] = test system: infiltrated tobacco cells; experiment: Western blot of infiltrated tobacco plants; type: cell-based, Nicotiana tabacum; conditions: infiltrated tobacco leaf tissue
Procedure: Samples of the infiltrated tobacco plants were assayed via Western blotting. Leaf punches were collected and subjected to bead-milling. About 100-200 mg of leaf material was mixed with 2 BBs (Daisy; Rogers, Ark.) and […] of PBST for 3 minutes in a Kleco™ bead mill. The samples were then spun down in a centrifuge at 14,000× g at 4° C. The supernatant was removed and either analyzed directly via Western blot or immunoprecipitated. The immunoprecipitations were performed using the Pierce Direct IP Kit™ (Thermo Scientific; Rockford, Ill.) following the manufacturer's protocol. Approximately, 50 μg of anti-YFP or anti-GFP was bound to the resin. The samples were incubated with the resin overnight at 4° C. Next, the samples were washed and eluted the following morning and prepped for analysis by combining equal volumes of 2×8M Urea sample buffer and then boiling the samples for 5 minutes. The boiled samples were run on a 4-12% SDS-Bis Tris gel in MOPS buffer for 40 minutes. The gel was then blotted using the Invitrogen iBlot™ (Life Technologies; Carlsbad, Calif.) following the manufacturer's protocol. The blotted membrane was blocked for 10 minutes using 5% non-fat dry milk in PBS-Tween® solution. The membrane was probed with the primary antibody (monoclonal anti-GFP or anti-YFP in rabbit) used at a 1:1000 dilution in the 5% non-fat dry milk in PBS-Tween® solution for 1 hour. Next, the membrane was rinsed three times for five minutes with PBS-Tween® to remove all unbound primary antibody. The membrane was probed with a secondary monoclonal anti-rabbit in goat antibody (Life Technologies) used at a 1:1000 dilution, for 60 minutes. The membrane was washed as previously described and developed by adding Themo BCIP/NBT™ substrate. The colormetric substrate was allowed to develop for 5-10 minutes and then the blots were rinsed with water before being dried.

[3] = test system: dgt-28 transformed T1 Arabidopsis; experiment: Glyphosate tolerance of dgt-28 transformed T1 Arabidopsis; type: in vivo, Arabidopsis thaliana; conditions: dgt-28 linked with the chloroplast transit peptide, T1 Arabidopsis
Procedure: The Arabidopsis T1 transformants (from transformation with pDAB114286 or pDAB114287) were first selected from the background of untransformed seed using a glufosinate selection scheme. Three flats or 50,000 seed were analyzed for each T1 construct. The selected T1 plants were molecularly characterized (as described above) and events with a range of copy number were sprayed with various rates of commercial glyphosate.
Transgenic T1 Arabidopsis plants containing the dgt-28 transgene were sprayed with differing rates of glyphosate. Elevated rates were applied in this study to determine the relative levels of resistance (420, 840, 1,680 or 3,360 g ae/ha). The typical 1× field usage rate of glyphosate is 1120 g ae/ha. The response of these plants is presented in terms of % visual injury 2 weeks after treatment (WAT). The T1 Arabidopsis plants that were used in this study were of variable copy number for the dgt-28 transgene. The low copy dgt-28 T1 Arabidopsis plants were self-pollinated and used to produce T2 plants.
An arithmetic mean and standard deviation is presented for each construct used for Arabidopsis transformation. The range in individual response is also indicated in the last column for each rate and transformation. Wildtype, non-transformed Arabidopsis thaliana c.v. Columbia served as a glyphosate sensitive control.

[4] = test system: chloroplasts of the maize protoplasts; experiment: Maize protoplast transient assay, microscopy of TraP-GFP; type: cell-based, Zea mays c.v. B104; conditions: TraP-GFP fusion, transfected maize protoplasts, microscopy after 12 hours
Procedure: Seed of Zea mays c.v. B104 were surface sterilized by shaking vigorously in 50% Clorox™ (3% sodium hypochlorite), containing 2-3 drops of Tween® 20, for about 20 minutes. The seeds were rinsed thoroughly with sterile distilled water. The sterile seed were plated onto ½ MS medium in Phytatrays or similar type boxes, and allowed to grow in the dark (28° C.) for 12 to 20 days. A maize protoplast transient assay was used to obtain and transfect maize protoplasts from leaves of Zea mays c.v. B104. This maize protoplast assay is a modification of the system described by Yoo, S.-D., Cho, Y.-H., and Sheen, J., (2007), Arabidopsis Mesophyll Protoplasts: A Versitile Cell System for Transient Gene Expression Analysis, Nature Protocols, 2: 1565-1572. The solutions were prepared as described by Yoo et. al., (2007), with the exception that the mannitol concentration used for the following experiments was change to 0.6 M.
Transfection of 100 to 500 μl of protoplasts (1-5×10^5 cells) was completed by adding the protoplasts to a 2 ml microfuge tube containing about 40 μg of plasmid DNA, at room temperature. The volume of DNA was preferably kept to about 10% of the protoplast volume. The protoplasts and DNA were occasionally mixed during a 5 minute incubation period. An equal volume of PEG solution was slowly added to the protoplasts and DNA, 2 drops at a time with mixing in between the addition of the drops of PEG solution. The tubes were allowed to incubate for about 10 minutes with occasional gentle mixing. Next, 1 ml of W5+ solution was added and mixed by inverting the tube several times. The tube(s) were centrifuged for 5 minutes at 75× g at a temperature of 4° C. Finally, the supernatant was removed and the pellet was resuspended in 1 ml of WI solution and the protoplasts were placed into a small petri plate (35×10 mm) or into 6-well multiwell plates and incubated overnight in the dark at room temperature. Fluorescence of GFP was viewed by microscopy after 12 hours of incubation. The microscopy conditions similar to those previously described were used for the imaging.

Molecule | translocation of YFP or GFP fluorescent protein into chloroplasts [1] | translocation of YFP or GFP fluorescent protein into chloroplasts ([1]; listed as TraP27-GFP) | TraP processed and cleaved from the YFP or GFP protein [2] | protection to glyphosate [3] | translocation of YFP or GFP fluorescent protein into chloroplasts ([1]; listed as TraP19-GFP) | translocation of GFP fluorescent protein into chloroplasts [4] | translocation of GFP fluorescent protein into chloroplasts ([4]; listed as TraP19-GFP) | translocation of GFP fluorescent protein into chloroplasts ([4]; listed as Trap19) | translocation of YFP or GFP fluorescent protein into chloroplasts ([1]; listed as TraP18-GFP) | translocation of GFP fluorescent protein into chloroplasts ([4]; listed as TraP18-GFP)
B1 | accumulated within the chloroplasts; also recorded: successfully targeted GFP to tobacco chloroplasts | translocated into the chloroplasts | processed and cleaved from the YFP or GFP protein | provide protection to glyphosate | – | – | – | – | – | –
B2 | accumulated within the chloroplasts; also recorded: successfully targeted GFP to maize and tobacco chloroplasts | – | processed and cleaved from the YFP or GFP protein | – | translocated into the chloroplasts | successfully targeted GFP to maize and tobacco chloroplasts | translocated into the chloroplasts | accumulated within the chloroplasts | – | –
B3 | accumulated within the chloroplasts; also recorded: successfully targeted GFP to maize and tobacco chloroplasts | – | processed and cleaved from the YFP or GFP protein | – | – | accumulated within the chloroplasts; also recorded: successfully targeted GFP to maize and tobacco chloroplasts | – | – | translocated into the chloroplasts | translocated into the chloroplasts
